Sequences and labels used below:
B1: hu CD45 HC2 + LC1 (antibody, V domains shown)
VH: EVQLLESGGGLVQPGGSLRLSCAASGFDFSRYWMSWVRQAPGKGLEWVSEINPTSSTINYADSVKGRFTISRDNSKNTLYLQMNSLRAEDTAVYYCARGNYYRYGDAMDYWGQGTMVTVSS
VL: DIVMTQSPDSLAVSLGERATINCKSSKSVSTSGYSYLHWYQQKPGQPPKLLIYLASNLESGVPDRFSGSGSGTDFTLTISSLQAEDVAVYYCQHSRELPFTFGQGTKLEIK
B2: hu CD45 HC4 + LC4 (antibody, V domains shown)
VH: EVQLVESGGGLVKPGGSLRLSCAASGFDFSRYWMSWVRQAPGKGLEWVSEINPTSSTINYADSVKGRFTISRDNAKNSLYLQMNSLRAEDTAVYYCARGNYYRYGDAMDYWGQGTMVTVSS
VL: DIQMTQSPSSLSASVGDRVTITCRASKSVSTSGYSYLHWYQQKPGKAPKLLIYLASNLQSGVPSRFSGSGSGTDFTLTISSLQPEDFATYYCQHSRELPFTFGQGTKLEIK
B3: hu CD45 HC4 + LC1 (antibody, V domains shown)
VH: EVQLVESGGGLVKPGGSLRLSCAASGFDFSRYWMSWVRQAPGKGLEWVSEINPTSSTINYADSVKGRFTISRDNAKNSLYLQMNSLRAEDTAVYYCARGNYYRYGDAMDYWGQGTMVTVSS
VL: DIVMTQSPDSLAVSLGERATINCKSSKSVSTSGYSYLHWYQQKPGQPPKLLIYLASNLESGVPDRFSGSGSGTDFTLTISSLQAEDVAVYYCQHSRELPFTFGQGTKLEIK
B4: hu CD45 HC3 + LC4 (antibody, V domains shown)
VH: EVQLVESGGGLVQPGGSLRLSCAASGFDFSRYWMSWVRQAPGKGLEWVAEINPTSSTINFVDSVKGRFTISRDNAKNSLYLQMNSLRAEDTAVYYCARGNYYRYGDAMDYWGQGTMVTVSS
VL: DIQMTQSPSSLSASVGDRVTITCRASKSVSTSGYSYLHWYQQKPGKAPKLLIYLASNLQSGVPSRFSGSGSGTDFTLTISSLQPEDFATYYCQHSRELPFTFGQGTKLEIK
B5: hu CD45 HC3 + LC1 (antibody, V domains shown)
VH: EVQLVESGGGLVQPGGSLRLSCAASGFDFSRYWMSWVRQAPGKGLEWVAEINPTSSTINFVDSVKGRFTISRDNAKNSLYLQMNSLRAEDTAVYYCARGNYYRYGDAMDYWGQGTMVTVSS
VL: DIVMTQSPDSLAVSLGERATINCKSSKSVSTSGYSYLHWYQQKPGQPPKLLIYLASNLESGVPDRFSGSGSGTDFTLTISSLQAEDVAVYYCQHSRELPFTFGQGTKLEIK
B6: hu CD45 HC2 + LC3 (antibody, V domains shown)
VH: EVQLLESGGGLVQPGGSLRLSCAASGFDFSRYWMSWVRQAPGKGLEWVSEINPTSSTINYADSVKGRFTISRDNSKNTLYLQMNSLRAEDTAVYYCARGNYYRYGDAMDYWGQGTMVTVSS
VL: EIVLTQSPATLSLSPGERATLSCRASKSVSTSGYSYLHWYQQKPGQAPRLLIYLASNLATGIPARFSGSGSGTDFTLTISSLEPEDFAVYYCQHSRELPFTFGQGTKLEIK
B7: hu CD45 HC2 + LC4 (antibody, V domains shown)
VH: EVQLLESGGGLVQPGGSLRLSCAASGFDFSRYWMSWVRQAPGKGLEWVSEINPTSSTINYADSVKGRFTISRDNSKNTLYLQMNSLRAEDTAVYYCARGNYYRYGDAMDYWGQGTMVTVSS
VL: DIQMTQSPSSLSASVGDRVTITCRASKSVSTSGYSYLHWYQQKPGKAPKLLIYLASNLQSGVPSRFSGSGSGTDFTLTISSLQPEDFATYYCQHSRELPFTFGQGTKLEIK
B8: hu CD45 HC4 + LC3 (antibody, V domains shown)
VH: EVQLVESGGGLVKPGGSLRLSCAASGFDFSRYWMSWVRQAPGKGLEWVSEINPTSSTINYADSVKGRFTISRDNAKNSLYLQMNSLRAEDTAVYYCARGNYYRYGDAMDYWGQGTMVTVSS
VL: EIVLTQSPATLSLSPGERATLSCRASKSVSTSGYSYLHWYQQKPGQAPRLLIYLASNLATGIPARFSGSGSGTDFTLTISSLEPEDFAVYYCQHSRELPFTFGQGTKLEIK

Experimental findings from patent publication US20240301081A1 are described below.

This test addresses rhCD45 His tag (human) (UniProt P08575). Nature of the test: BLI (Octet HTX), compared with the parental antibody.
Sequence of UniProt P08575 (P08575 26-577): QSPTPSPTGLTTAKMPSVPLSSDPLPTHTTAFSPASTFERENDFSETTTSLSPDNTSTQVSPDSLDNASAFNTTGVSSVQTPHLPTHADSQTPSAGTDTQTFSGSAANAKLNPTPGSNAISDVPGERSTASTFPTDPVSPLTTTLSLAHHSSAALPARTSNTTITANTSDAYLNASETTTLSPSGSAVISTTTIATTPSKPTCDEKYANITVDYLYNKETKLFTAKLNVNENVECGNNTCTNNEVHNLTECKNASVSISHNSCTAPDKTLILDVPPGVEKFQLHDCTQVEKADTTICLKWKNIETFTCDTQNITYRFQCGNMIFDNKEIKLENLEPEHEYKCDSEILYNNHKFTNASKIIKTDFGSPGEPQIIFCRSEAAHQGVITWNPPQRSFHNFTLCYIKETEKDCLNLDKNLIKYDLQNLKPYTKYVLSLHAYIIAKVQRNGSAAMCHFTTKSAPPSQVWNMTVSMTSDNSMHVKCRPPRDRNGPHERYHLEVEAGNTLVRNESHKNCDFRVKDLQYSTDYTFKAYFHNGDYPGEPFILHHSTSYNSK
Turning to B1, the fold change in KD relative to the parental antibody is below 10 fold.
The same measure for B2: below 10 fold.
B3: the fold change in KD relative to the parental antibody was below 10 fold.
Take B4: the fold change in KD relative to the parental antibody was below 10 fold.
The same measure for B5: below 10 fold; for B6: below 10 fold; for B7: below 10 fold.
Take B8: the fold change in KD relative to the parental antibody was below 10 fold.
